Test results reported in PMC8850660, “The P300 acetyltransferase inhibitor C646 promotes membrane translocation of insulin receptor protein substrate and interaction with the insulin receptor” (The Journal of Biological Chemistry, 2022).

Biological target: unphosphorylated beta subunit of the insulin receptor (IRβ), recombinant (UniProt P06213)
Assay: SPR; Biacore T200, unphosphorylated IRβ immobilised on a CM5 chip; same amounts of IRS1 or IRS2 injected together with different (nM) concentrations of C646; HBS-P buffer (10 mM Hepes, 150 mM NaCl, 0.05% P20, pH 7.4), 30 μl/min, 25 °C; global fit to 1:1 Langmuir model

unphosphorylated beta subunit of the insulin receptor (IRβ), recombinant, sequence (P06213 763-1382): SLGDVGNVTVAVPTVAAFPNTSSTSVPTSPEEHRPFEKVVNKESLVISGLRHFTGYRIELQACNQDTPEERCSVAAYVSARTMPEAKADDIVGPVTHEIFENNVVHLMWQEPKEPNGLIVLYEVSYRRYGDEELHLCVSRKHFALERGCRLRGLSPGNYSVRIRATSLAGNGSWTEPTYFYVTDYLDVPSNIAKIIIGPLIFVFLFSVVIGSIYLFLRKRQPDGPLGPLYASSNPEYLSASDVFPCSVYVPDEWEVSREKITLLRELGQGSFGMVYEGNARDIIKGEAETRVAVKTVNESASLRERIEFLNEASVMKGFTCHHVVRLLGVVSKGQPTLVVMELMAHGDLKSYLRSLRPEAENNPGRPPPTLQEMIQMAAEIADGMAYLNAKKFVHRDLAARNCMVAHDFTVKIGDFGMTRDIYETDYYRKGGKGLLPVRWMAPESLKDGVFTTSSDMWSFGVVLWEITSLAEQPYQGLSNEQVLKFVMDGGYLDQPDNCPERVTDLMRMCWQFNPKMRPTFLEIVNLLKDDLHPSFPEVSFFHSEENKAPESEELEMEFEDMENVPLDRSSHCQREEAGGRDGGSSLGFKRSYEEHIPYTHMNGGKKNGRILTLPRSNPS

KD with C646	Substance
2.86e-13	purified IRS1 protein (insulin receptor substrate 1) (from UniProt P35569 1-1233) (natural protein)
7.6e-12	purified IRS2 protein (insulin receptor substrate 2) (from UniProt P81122 1-1321) (natural protein)
